Positions of bridges follow the written chain, without caps; N, C: chain ends. Non-standard residues stand in square brackets, D forms with d. Primed or numbered codes have the meaning given here. Chains are numbered I, II in the order given. No end group written: not given here. *: point of attachment. Palmitoyl = CCCCCCCCCCCCCCCC(=O)*; PEG2′ = PEG2 spacer unit
How the values were obtained:
[1] = target: T1, human serum albumin (HSA) (human, UniProt P02768 25-609); assay: fluorescence polarization, dilution series of human serum
Protocol: (b) Kd values of conjugates for HSA assessed by fluorescence polarization. A dilution serious of human serum was used. […] All data represent the mean of three measurements ±SD.
Thus, the dissociation constants (Kd) of the molecules for HSA were tested with a fluorescence polarization (FP) assay using the fluorescein moiety in the albumin tag. The fluorescence anisotropy of the molecules in a dilution series of human serum was measured and Kd values were calculated.

[2] = target: T2, human Kallikrein-related peptidase 7 (hKLK7) (human, UniProt P49862 30-253); assay: substrate-based activity assay in the presence of 25 µM HSA
T2 construct: Active protease used in substrate-based activity assays and immobilized for phage selection; also called stratum corneum chymotryptic enzyme (SCCE)
T2 sequence (P49862 30-253 limits assumed): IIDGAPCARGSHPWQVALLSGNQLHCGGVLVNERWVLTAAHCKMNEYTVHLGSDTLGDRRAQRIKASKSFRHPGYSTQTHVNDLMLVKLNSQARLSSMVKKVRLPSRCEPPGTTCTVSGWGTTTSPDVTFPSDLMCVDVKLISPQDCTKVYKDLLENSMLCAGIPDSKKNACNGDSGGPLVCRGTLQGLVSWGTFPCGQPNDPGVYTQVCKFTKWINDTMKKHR
Protocol: (§1) (a) Kᵢ values of N- and C-terminal tag conjugates in comparison to unconjugated inhibitors measured by inhibition assays in the presence of HSA. […] All data represent the mean of three measurements ±SD.
(§2) Even though the actual concentration of albumin in human blood is at around 600 μM and thus much higher, a higher albumin concentration in the assay was not possible, as it interfered with the protease activity.

[3] = target: T3, human Kallikrein-related peptidase 5 (hKLK5) (human, UniProt Q9Y337 67-293, limits assumed); assay: as above
T3 construct: Active protease used in substrate-based activity assays and immobilized for phage selection; also called stratum corneum tryptic enzyme (SCTE)
T3 sequence (Q9Y337 67-293 limits assumed): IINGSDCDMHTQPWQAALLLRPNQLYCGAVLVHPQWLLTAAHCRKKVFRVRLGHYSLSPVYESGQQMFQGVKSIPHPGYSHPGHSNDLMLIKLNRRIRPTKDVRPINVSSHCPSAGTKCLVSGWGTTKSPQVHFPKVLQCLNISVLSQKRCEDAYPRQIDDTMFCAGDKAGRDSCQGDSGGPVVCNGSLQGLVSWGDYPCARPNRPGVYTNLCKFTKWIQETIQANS
Protocol: as §1, §2

[4] = target: T4, mouse serum albumin (MSA) (mouse, UniProt P07724 25-608); assay: fluorescence polarization, dilution series of mouse albumin in PBS
T4 construct: also called mouse albumin
T4 sequence (P07724 25-608 limits assumed): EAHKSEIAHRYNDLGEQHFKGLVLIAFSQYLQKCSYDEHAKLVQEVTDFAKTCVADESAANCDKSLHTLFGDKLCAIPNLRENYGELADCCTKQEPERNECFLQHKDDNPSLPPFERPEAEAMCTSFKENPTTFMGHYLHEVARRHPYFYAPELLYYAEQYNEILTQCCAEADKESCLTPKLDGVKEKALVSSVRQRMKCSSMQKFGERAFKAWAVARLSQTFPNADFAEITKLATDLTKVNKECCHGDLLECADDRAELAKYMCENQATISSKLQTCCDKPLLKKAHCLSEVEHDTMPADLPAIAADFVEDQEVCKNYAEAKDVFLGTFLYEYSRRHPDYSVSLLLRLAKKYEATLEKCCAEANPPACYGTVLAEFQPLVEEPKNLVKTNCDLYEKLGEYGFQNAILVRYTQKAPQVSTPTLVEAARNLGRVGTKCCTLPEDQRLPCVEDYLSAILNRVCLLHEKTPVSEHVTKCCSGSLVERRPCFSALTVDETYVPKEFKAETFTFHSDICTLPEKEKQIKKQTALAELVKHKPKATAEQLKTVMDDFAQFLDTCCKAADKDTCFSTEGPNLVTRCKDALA

[5] = target: T5, FXIIa (Factor XIIa) (human, UniProt P00748 373-615, limits assumed); assay: substrate-based activity assay, off-target selectivity
T5 sequence (looked up): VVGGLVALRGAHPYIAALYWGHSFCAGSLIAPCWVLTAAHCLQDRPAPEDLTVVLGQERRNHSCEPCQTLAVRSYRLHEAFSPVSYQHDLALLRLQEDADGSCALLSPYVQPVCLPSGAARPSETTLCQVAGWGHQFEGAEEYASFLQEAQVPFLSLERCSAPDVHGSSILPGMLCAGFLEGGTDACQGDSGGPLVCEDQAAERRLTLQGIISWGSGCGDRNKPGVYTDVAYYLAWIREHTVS

[6] = target: T1, human serum albumin (HSA); assay: fluorescence polarization
[7] = target: T2, human Kallikrein-related peptidase 7 …; assay: substrate-based activity assay

B1: N-terminal albumin tag conjugate of KLK7 inhibitor 096 (peptide)
peptide 1: {5(6)‑carboxyfluorescein}-EYEK(Palmitoyl)EYE[PEG2′]
peptide 2: PCLYLARCS
modifications: linker II:2-II:8 via 1,3‑dibromoacetone; also: tag C-terminus joined through PEG2 to inhibitor N-terminus (one linear molecule)
notes: also called N-terminal conjugate (KLK7)
Question: Does B1 bind [1]?
Answer: binds

Question: And the Ki [2]?
Answer: 106 nM

Question: And the “fold loss in activity compared to the cyclic peptide alone” value [2]?
Answer: 6.6 fold

B2: KLK7 inhibitor 096-tag (C-terminal albumin tag conjugate of 096) (peptide)
peptide 1: PCLYLARCSGKG
peptide 2: EYEK(Palmitoyl)EYE
modifications: bridge I:2-I:8; not fully specified (some residues, N-terminus, bridges); also: chain 2 (albumin tag) attached via PEG2 to Lys11 side chain of chain 1 (branched)
notes: Branched molecule
Question: For B2, which “fold loss in affinity (Kd) for HSA on conjugation” value [1] is on record?
Answer: 2.9 fold

B3: KLK5 inhibitor 035-tag (C-terminal albumin tag conjugate of 035) (peptide)
peptide 1: GCTRQYPCGKG
peptide 2: EYEK(Palmitoyl)EYE
modifications: bridge I:2-I:8; not fully specified (some residues, N-terminus, bridges); also: chain 2 (albumin tag) attached via PEG2 to Lys10 side chain of chain 1 (branched)
Question: Which results are given for B3?
Answer: fold loss in affinity (Kd) for HSA on conjugation [1]: 2.1 fold; fold improvement in the Ki value compared to the cyclic peptide alone [3]: 1.8 fold; binding result [4]: binds

B4: SSSKSSS-tag (peptide)
peptide: SSSK(Palmitoyl)SSS
modifications: also: fluorescein label, position not given here
notes: Tag variant with all Tyr and Glu replaced by Ser; also called tag composed of Ser residues
Question: Does B4 bind [4]?
Answer: binds

B5: peptide 035 (lead KLK5 inhibitor) (peptide)
peptide: GCTRQYPC
modifications: linker 2-8 via 1,3‑dibromoacetone
notes: also called compound 035
Question: For B5, which “fold weaker than the Ki value for KLK5” value [5] is on record?
Answer: ~4300 fold

B6: albumin tag variant peptide 263 (peptide)
peptide: EYEKEYEK
modifications: pentanedioic acid appended to the N-terminus through a PEG2 unit; Lys 4 side chain acylated with palmitic acid; additional C-terminal Lys carries 5(6)-carboxyfluorescein on its side chain
Question: For B6, which “factor recovered in HSA affinity compared to tag-F” value [6] is on record?
Answer: 2 fold

B7: N-terminal albumin tag conjugate of KLK5 inhibitor 035 (peptide)
peptide 1: {5(6)‑carboxyfluorescein}-EYEK(Palmitoyl)EYE
peptide 2: GCTRQYPC
modifications: bridge II:2-II:8; not fully specified (C-terminus, bridges); also: chain 1 C-terminus joined via PEG2 to N-terminus of chain 2 (one linear molecule)
notes: also called N-terminal conjugate (KLK5)
Question: What does the source list for B7?
Answer: binding result [1]: binds; Ki [3]: 23 nM; fold loss in activity compared to the cyclic peptide alone [3]: 10 fold

B8: albumin tag variant peptide 266 (peptide)
peptide: EYEKEYEK
modifications: benzoic acid coupled to the amine of a gamma-coupled glutamic acid at the N-terminus (through PEG2); Lys 4 side chain acylated with palmitic acid; additional C-terminal Lys carries 5(6)-carboxyfluorescein on its side chain
Question: How did the “further factor recovered in HSA affinity by the first aromatic ring” value [6] turn out when B8 was run?
Answer: 2 fold

B9: peptide 096 (lead KLK7 inhibitor) (peptide)
peptide: PCLYLARCS
modifications: linker 2-8 via 1,3‑dibromoacetone
Question: For B9, which “fold better activity than peptide 114” value [7] is on record?
Answer: 2 fold

B10: albumin tag variant peptide 284 (peptide)
peptide: EYEKEYEK
modifications: 2-naphthalenecarboxylic acid cap at the N-terminus (based on peptide 266: on a gamma-coupled glutamic acid, through PEG2); Lys 4 side chain acylated with palmitic acid; additional C-terminal Lys carries 5(6)-carboxyfluorescein on its side chain
notes: also called tag variant 284
Question: How did the “factor of improvement in HSA affinity over peptide 266” value [6] turn out when B10 was run?
Answer: 4 fold

B11: albumin tag variant peptide 282 (peptide)
peptide: EYEKEYEK
modifications: biphenyl-3-carboxylic acid cap at the N-terminus (based on peptide 266: on a gamma-coupled glutamic acid, through PEG2); Lys 4 side chain acylated with palmitic acid; additional C-terminal Lys carries 5(6)-carboxyfluorescein on its side chain
notes: also called tag variant 282
Question: How did the “factor of improvement in HSA affinity over peptide 266” value [6] turn out when B11 was run?
Answer: 4 fold

Source: patent US20220267379A1 (ECOLE POLYTECHNIQUE FEDERALE DE LAUSANNE EPFL, published 2022)
